From patent publication CN114075552A (MEDX TRANSLATIONAL MEDICINE CO LTD, dated 2022)

B1: 克隆号为MJ9-1的杂交瘤细胞(CGMCC No.23015)分泌的抗FGL1单克隆抗体 (antibody, mouse IgG1, kappa, V domains shown)
VH: EVQLVESGGGLVKPGGSLKLSCAASGFTFSDGYMYWVRQTPEKRLEWVATISDGGSGTYYPDSVKGRFTISRDNAKNNLYLQMSSLKSEDTAMYYCARAATVTRWFAYWGQGTLVTVSA
VL: DIQMNQSPSSLSASLGDTITITCHASYNINVWLTWYQQKPGNIPKLLIYKASKLHTGVPSRFSGSGSGTGFTLTISSLQPEDIATYYCQQGQSYPLTFGGGTKLEIKR
notes: also called MJ9-1分泌的单克隆抗体; 第一单克隆抗体
B2: 克隆号为MJ9-4的杂交瘤细胞(CGMCC No.23016)分泌的抗FGL1单克隆抗体 (antibody, mouse IgG1, kappa, V domains shown)
VH: EVKLQQSGAELAKPGASVKMSCKASGYIFTGGWMHWVKQRPGQGLEWIGYINPSTDGTDYNQKFEDKATLTADKSSSTAYMQLSSLTSEDSAVYYCAREGYYGSSPYFDYWGQGTTLTVSS
VL: DIVITQTPATLSVTPGDSVSLSCRASQSVSNNLHWYQQKSHESPRLLIKYVSQSISGIPSRFSGSGSGTDFTLSINSVETEDFGMYFCQQSNSWPLYTFGGGTKLEIKR
notes: also called MJ9-4分泌的单克隆抗体; 第二单克隆抗体

Columns and labels:
[1] = target: T1, 原核表达的TF-FGL1融合蛋白 (human FGL1 Leu23-Ile312 fused to trigger factor, pCold TF, expressed in E. coli BL21(DE3)) (human); test: indirect ELISA, antigen coated at 0.5 µg/mL, purified antibody 0.5 µg/mL
T1 construct: also called 原核表达的FGL1蛋白; TF-FGL1蛋白
T1 chain: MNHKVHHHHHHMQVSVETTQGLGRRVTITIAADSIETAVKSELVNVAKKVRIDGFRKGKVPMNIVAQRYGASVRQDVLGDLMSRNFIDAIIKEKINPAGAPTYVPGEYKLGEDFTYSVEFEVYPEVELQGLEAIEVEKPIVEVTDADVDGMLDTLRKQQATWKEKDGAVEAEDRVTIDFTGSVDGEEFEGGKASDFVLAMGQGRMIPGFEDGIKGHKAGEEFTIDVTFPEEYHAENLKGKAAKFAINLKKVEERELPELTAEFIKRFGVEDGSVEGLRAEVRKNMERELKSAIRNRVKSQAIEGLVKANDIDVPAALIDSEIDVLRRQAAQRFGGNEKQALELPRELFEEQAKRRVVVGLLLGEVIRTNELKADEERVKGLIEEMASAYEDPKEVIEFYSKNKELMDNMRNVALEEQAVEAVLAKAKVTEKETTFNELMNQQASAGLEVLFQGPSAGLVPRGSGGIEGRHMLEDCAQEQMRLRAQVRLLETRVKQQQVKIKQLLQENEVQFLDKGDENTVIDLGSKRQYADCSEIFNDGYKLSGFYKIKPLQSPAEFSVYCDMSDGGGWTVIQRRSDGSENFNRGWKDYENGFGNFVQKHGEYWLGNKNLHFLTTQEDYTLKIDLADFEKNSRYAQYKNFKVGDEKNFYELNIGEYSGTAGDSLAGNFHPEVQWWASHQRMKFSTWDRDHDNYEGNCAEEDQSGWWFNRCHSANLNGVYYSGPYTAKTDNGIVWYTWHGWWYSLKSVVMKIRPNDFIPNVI

[2] = target: T2, 真核表达的人FGL1重组蛋白 (human FGL1 Leu23-Ile312 with C-terminal 6xHis, expressed in 293F cells) (human, UniProt Q08830 23-312); test: indirect ELISA screen, hybridoma supernatant on coated human FGL1 recombinant protein (0.5 µg/mL)
T2 construct: also called 真核表达的FGL1蛋白; 真核表达的人FGL1蛋白
T2 sequence: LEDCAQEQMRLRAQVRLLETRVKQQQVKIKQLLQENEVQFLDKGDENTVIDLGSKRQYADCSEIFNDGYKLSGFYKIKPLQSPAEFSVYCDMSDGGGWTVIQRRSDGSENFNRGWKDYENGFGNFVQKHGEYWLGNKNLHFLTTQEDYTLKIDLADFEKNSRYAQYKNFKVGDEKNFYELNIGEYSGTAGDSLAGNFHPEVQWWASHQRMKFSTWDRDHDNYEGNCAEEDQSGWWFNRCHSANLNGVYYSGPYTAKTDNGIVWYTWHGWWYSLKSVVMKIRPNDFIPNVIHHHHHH

[3] = target: T2, 真核表达的人FGL1重组蛋白 (human FGL1 Leu23-Ile312 …); test: indirect ELISA, antigen coated at 0.5 µg/mL, purified antibody 0.5 µg/mL

Binder	binding result [1]	binding result [2]	binding result [3]
B1	binds	binds	
B2	binds		binds
